Data on nine molecules can be found in publication PMC4356366, “Structures of the human Pals1 PDZ domain with and without ligand suggest gated access of Crb to the PDZ peptide-binding groove” (Acta Crystallographica Section D: Biological Crystallography, 2015).

The chains are these.
B1: fluorescein-labelled human Crb1 peptide, residues 1390-1406 (Crb^17) (peptide)
peptide: RVEMWNLMPPPAMERLI
modifications: also: fluorescein label, position not given here
notes: also called fluorescein-labelled Crb^17; Crumbs peptide (homologue 1)

Values joined by “and” are separate entries in the source; they are usually repeats but may differ in a detail not shown here. Identical values can stand only once. “Also recorded” adds a separate entry of the source. Ends that are not written are not given here.

The target in assay [1] is T1, human Pals1 PDZ domain (Pals1^PDZ; residues 251–335) (Homo sapiens, UniProt Q8N3R9).
T1 construct: the PDZ domain of human Pals1 (Pals1^PDZ; residues 251–335); GST (N, cleaved yes); made in house; host or cells: Escherichia coli FB810
T1 sequence (Q8N3R9 251-335): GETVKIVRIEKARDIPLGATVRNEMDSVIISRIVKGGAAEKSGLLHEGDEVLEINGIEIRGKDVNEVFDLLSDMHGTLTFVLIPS
Nature of the assay: Fluorescence polarization binding assay, fluorescein-labelled Crb peptides with Pals1^PDZ. The conditions noted are these: Fp, fluorescein-labelled peptide 50 nM, protein 0 to 300 µM, 20 mM HEPES pH 7.5, 100 mM NaCl, 1 mM DTT, read after 5 min; measured in parallel from the same Pals1 preparation; representative of three independent experiments. The procedure: Fluorescence polarization (Fp) assays were performed to determine the K d for each peptide following a previously described protocol (Guettler et al., 2008[▶]). Binding assays were performed in 20 mM HEPES pH 7.5, 100 mM NaCl, 1 mM DTT. The reaction mixtures contained a fixed concentration of fluorescein-labelled peptide (50 nM) and a protein concentration ranging from 0 to 300 µM depending on the dissociation constant. The 20 µl reactions were carried out in a 384-well plate and measured after 5 min using a Tecan Safire2 plate reader with excitation at 470 nm and emission at 525 nm. The anisotropy values were normalized and the K d values were determined using nonlinear regression with the graphics program Prism (Heyduk & Lee, 1990[▶]).
To characterize the interaction between the PDZ domain of human Pals1 (Pals1^PDZ; residues 251–335) and the intracellular segment of human Crb1 in vitro, we used fluorescence polarization (Fp) assays with a fluorescein-labelled peptide containing 17 carboxy-terminal residues 1390–1406 (defined hereafter as Crb^17). […] The Pals1^PDZ–Crb^17 interaction was stable to size-exclusion chromatography as detected from the Crb^17 intrinsic tryptophan fluorescence (data not shown). […]

In assay [2] the target is T2, human Pals1 PDZ domain (Pals1^PDZ; residues 251-335), wild type (human, UniProt Q8N3R9 251-335).
T2 chain: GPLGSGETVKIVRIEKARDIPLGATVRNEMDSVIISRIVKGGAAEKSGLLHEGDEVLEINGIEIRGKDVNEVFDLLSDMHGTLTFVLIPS
The experiment in a line: FP.

Assay [3] concerns the target T3, human Pals1 PDZ domain (Pals1^PDZ; residues 251-335), wild type (human, UniProt Q8N3R9 251-335).
T3 construct: vector-derived residues Gly-Pro-Leu-Gly-Ser at the amino-terminus of Pals1^PDZ, left after removal of GST; Pals1 (MPP5), human, PDZ domain, residues 251-335; also called MPP5; protein associated with Lin-7; source: E. coli FB810, purified (glutathione Sepharose 4B, GST removed with GST-3C protease, Superdex S75)
T3 sequence: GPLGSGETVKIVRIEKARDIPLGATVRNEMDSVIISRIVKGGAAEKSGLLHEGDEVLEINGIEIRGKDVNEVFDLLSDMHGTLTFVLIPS
The experiment in a line: fluorescence polarisation; fixed fluorescein-labelled peptide (50 nM), Pals1 PDZ protein titrated 0 to 300 µM; 20 mM HEPES pH 7.5, 100 mM NaCl, 1 mM DTT; 20 µl in 384-well plate, read after 5 min. The conditions noted are these: both partners purified.

Assay [4] addresses T4, human Pals1 PDZ domain F318A mutant (human, UniProt Q8N3R9 251-335, F318A).
T4 sequence: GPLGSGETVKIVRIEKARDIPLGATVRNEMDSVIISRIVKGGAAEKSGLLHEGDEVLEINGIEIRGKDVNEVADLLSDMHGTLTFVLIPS
The experiment in a line: FP.

Assay [5] has as its target T5, human Pals1 PDZ domain F318C mutant (human, UniProt Q8N3R9 251-335, F318C).
T5 construct: Pals1 (MPP5), human, PDZ domain, residues 251-335, F318C; The methods name only the wild type and F318A; also called Pals1^PDZ F318C
T5 sequence (looked up): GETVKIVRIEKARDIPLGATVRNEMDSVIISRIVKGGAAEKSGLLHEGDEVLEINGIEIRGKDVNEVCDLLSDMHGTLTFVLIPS
The experiment in a line: fluorescence polarisation; fixed fluorescein-labelled peptide (50 nM), Pals1 PDZ protein titrated 0 to 300 µM; 20 mM HEPES pH 7.5, 100 mM NaCl, 1 mM DTT; 20 µl in 384-well plate, read after 5 min. The conditions noted are these: both partners purified.

For assay [6], the target named is B1. The description is as above. The conditions noted are these: both partners purified.
The target of assay [7] is Individual Crb^17 substitutions E1403A, R1404A and L1405A. The assay is described as above.

Turning to “Crb^17 I1406A: Crb^17 peptide with carboxy-terminal Ile1406 replaced by alanine, fluorescein-labelled (RVEMWNLMPPPAMERLA; also: fluorescein label, position not given here)”, in assay [1], the “dissociation constant (Kd) for Pals1^PDZ” value is on record as “completely abolished detectable binding; also recorded: Not detectable”.

In assay [2], RVEMWNLMPPPAMEALI (also: fluorescein label, position not given here) [fluorescein-labelled Crb^17 R1404A] displayed a Kd of 51.5 µM. Moreover, the binding result in assay [3] is “binds”. AMERLI (also: fluorescein label, position not given here) [fluorescein-labelled shorter Crb1 peptide spanning residues 1401-1406 (Crb^6)]: the dissociation constant Kd in assay [2] is 16.8 µM. Also, in assay [3], the binding result was “binds”. With B1, the Kd was 1.8 µM in assay [4]; 5 µM in assay [5]; 9.2 µM and 12.4 µM in assay [3].

B2: human Pals1 PDZ domain F318A mutant (domain or fragment)
chain: GPLGSGETVKIVRIEKARDIPLGATVRNEMDSVIISRIVKGGAAEKSGLLHEGDEVLEINGIEIRGKDVNEVADLLSDMHGTLTFVLIPS
notes: vector-derived residues Gly-Pro-Leu-Gly-Ser at the amino-terminus of Pals1^PDZ, left after removal of GST (told for the wild type, same preparation); Pals1 (MPP5), human, PDZ domain, residues 251-335, F318A; also called Pals1^PDZ F318A; source: E. coli FB810, purified (glutathione Sepharose 4B, GST removed with GST-3C protease, Superdex S75)
In the case of B2, the “fold tighter binding than wild-type Pals1^PDZ” value in assay [6] amounted to 5 fold.

In turn, RVEMWNLMPPPAMARLI (also: fluorescein label, position not given here) [fluorescein-labelled Crb^17 E1403A] showed a Kd in assay [2] of 53.1 µM. Besides, in assay [3], the binding result is “binds”.

B3: human Pals1 PDZ domain (Pals1^PDZ; residues 251-335), wild type (domain or fragment)
chain: GPLGSGETVKIVRIEKARDIPLGATVRNEMDSVIISRIVKGGAAEKSGLLHEGDEVLEINGIEIRGKDVNEVFDLLSDMHGTLTFVLIPS
In assay [7], B3 yielded a Kd of 52 to 55 µM. Regarding RVEMWNLMPPPAAERLI (also: fluorescein label, position not given here) [fluorescein-labelled Crb^17 M1402A], binding in assay [2] was characterised by a dissociation constant (Kd) of 8.1 µM. Moreover, the binding result in assay [3] is recorded as “binds”. For the molecule RVEMWNLMPPPAMERAI (also: fluorescein label, position not given here) [fluorescein-labelled Crb^17 L1405A], the Kd in assay [2] worked out at 55.3 µM. For the same molecule, the binding result in assay [3] is listed as “binds”.
